Measured values reported in publication PMC314469, “Protein Interaction Networks by Proteome Peptide Scanning” (PLoS Biology, 2004).

T1: amphyphisin SH3 (AMPH_HUMAN), P49418
T1 chain: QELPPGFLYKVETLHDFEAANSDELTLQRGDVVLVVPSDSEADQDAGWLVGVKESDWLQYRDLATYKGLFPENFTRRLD


How the values were obtained:
[1] = molecular target: T1, amphyphisin SH3 (AMPH_HUMAN), P49418; assay: SPOT array
[2] = molecular target: endophilin SH3 (SH3G2_HUMAN), Q99962; assay: SPOT array

Binder | normalised SPOT signal, Boehringer light units (BLU); mean over the file's lines of this peptide [1] | normalised SPOT signal, Boehringer light units (BLU); mean over the file's lines of this peptide [2]
QVYVLKRPYVDEFL [O14595 137-150] | 6.6 | 28.4
RAWIPGKPPSPPRG [Q14069 9-23] | 1950 | 4770
RSSFPVRPPTASTI [Q9NPY2 259-273] | 167 | 3140
RAITFRRPSRVHYY [Q96RS3 192-205] | 708 | 33.9
RAVDLRRPLLHELL [Q9NXT9 123-136] | 114 | 67.7
RGDDLRRPATMKGK [Q96T37 35-48] | 30 | 144
REDRFRRPRDEGGW [Q14152 1235-1248] | 46 | 116
REVSLKRPLGNSPG [P17036 132-145] | 39.7 | 55.7
RAPPPSRPPPRPSV [Q9H6X2 550-564] | 4340 | 11000
REKKPPRPPKKKYQ [Q9NR48 1976-1990] | 56.2 | 6480
RGAQLRRPRHSHPT [Q16360 129-142] | 53.3 | 40.1
ATDSPRRPSRSTGG [Q9H6U6 6-19] | 11300 | 472
QVYVLKRPHVDEFL [O15194 206-219] | 19.5 | 58.8
QYRSLPRPAKSSSM [Q9H9S9 177-190] | 220 | 764
REAALERPRRTKRE [Q96LA8 29-42] | 2500 | 330
RAASLRRPRRAASR [Q8WYB4 11-24] | 80.1 | 72.5
RGAQLRRPRHSHLT [Q13399 123-136] | 25.3 | 53.2
QVMVIKRPGRKRKA [P51608 244-257] | 1620 | 240
QVNHLKRPVSGVGD [Q92610 1091-1104] | 42.5 | 0
REAGFKRPVVLFGP [Q9UDY2 725-738] | 24.6 | 23.8
RELDLSRPSRSISL [Q12879 1300-1313] | 3150 | 98.7

Results, then the binder that gave them:

normalised SPOT signal, Boehringer light units (BLU); mean over the file's lines of this peptide [1] | normalised SPOT signal, Boehringer light units (BLU); mean over the file's lines of this peptide [2] | Binder
136 | 3950 | AASSPARPPGLQRS [Q9BQ89 173-187]
1220 | 764 | QYNFLRRPQRMPVS [Q9BZC7 2011-2024]
48.7 | 66.3 | RASSPKRPGPWSEP [P08922 650-663]
47.6 | 1460 | RADIPKRPSYVAPL [Q9Y2F3 1400-1413]
108 | 182 | RDFIISRPTKLKSL [Q9Y6K5 932-945]
3010 | 2120 | QYGFPRRPPPRGSQ [Q9BQH3 166-180]
219 | 2140 | RAPRPTRPDKARRL [P39030 37-50]
19.2 | 13.5 | RFALFKRPKANGVK [Q9GZY5 40-53]
3.2 | 116 | RGERLPRPDKSPSE [P29597 1130-1143]
32.9 | 23.6 | ATGTLKRPTSLSRH [Q92619 87-100]
132 | 6070 | ATPLPRRPQPRDLG [O15350 435-448]
20.7 | 61.3 | ATFSLRRPWTEAGA [P20800 107-120]
12400 | 13300 | RSVRPSRPPRGFQP [O43184 749-763]
6640 | 2140 | RAPSPARPRRPHAS [Q9H8S7 104-117]
5070 | 190 | RDLIFKRPSRQFQY [Q92797 568-581]
180 | 80.9 | RAQRIRRPFRPILN [Q9NR60 64-77]
8090 | 2440 | RAEVPTKPPLPPAR [Q9UKM7 224-238]
47.4 | 18.3 | REASFKRPVVILGP [O95049 627-640]
34.7 | 254 | RDAFLKRPISNKYM [Q9H278 225-238]
60.7 | 43.1 | QVVGPHRPPALDDR [Q14097 329-343]
19 | 412 | RSWVLRRPMLAAAG [P36776 15-28]
